According to publication PMC9482650, “Quantitative fragmentomics allow affinity mapping of interactomes” (Nature Communications, 2022):

T1: GRIP1_3, Q9Y3R0
T1 sequence (Q9Y3R0 247-346, limits assumed, looked up): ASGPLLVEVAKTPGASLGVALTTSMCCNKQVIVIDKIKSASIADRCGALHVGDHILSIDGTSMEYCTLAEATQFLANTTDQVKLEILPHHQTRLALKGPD

T2: PDZD2_2, O15018
T2 sequence (O15018 329-429, limits assumed, looked up): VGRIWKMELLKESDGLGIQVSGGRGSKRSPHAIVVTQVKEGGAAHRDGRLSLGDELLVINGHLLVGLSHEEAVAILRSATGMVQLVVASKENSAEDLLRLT

T3: MPP6, Q9NZW5
T3 sequence (Q9NZW5 125-219, limits assumed, looked up): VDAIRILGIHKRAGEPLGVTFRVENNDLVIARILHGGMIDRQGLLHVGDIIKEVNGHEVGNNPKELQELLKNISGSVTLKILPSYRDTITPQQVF

T4: GRIP1_2, Q9Y3R0
T4 sequence (Q9Y3R0 145-248, limits assumed, looked up): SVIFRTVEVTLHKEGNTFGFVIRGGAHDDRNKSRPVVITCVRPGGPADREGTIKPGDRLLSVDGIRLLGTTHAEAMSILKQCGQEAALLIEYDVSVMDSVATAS

T5: RAPGEF6, Q8TEU7
T5 sequence (Q8TEU7 525-625, limits assumed, looked up): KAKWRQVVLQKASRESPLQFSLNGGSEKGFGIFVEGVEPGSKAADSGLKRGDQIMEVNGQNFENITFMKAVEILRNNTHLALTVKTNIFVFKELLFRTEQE

T6: ARHGEF11, O15085
T6 sequence (O15085 42-136, limits assumed, looked up): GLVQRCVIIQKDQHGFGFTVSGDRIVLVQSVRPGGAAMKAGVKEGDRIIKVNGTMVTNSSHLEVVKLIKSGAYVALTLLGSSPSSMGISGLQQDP

T7: GRIP1_7, Q9Y3R0
T7 sequence (Q9Y3R0 999-1096, limits assumed, looked up): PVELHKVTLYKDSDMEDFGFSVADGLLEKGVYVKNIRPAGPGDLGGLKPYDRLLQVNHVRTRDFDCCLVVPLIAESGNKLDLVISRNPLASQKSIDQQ

T8: GRIP1_5, Q9Y3R0
T8 sequence (Q9Y3R0 568-668, limits assumed, looked up): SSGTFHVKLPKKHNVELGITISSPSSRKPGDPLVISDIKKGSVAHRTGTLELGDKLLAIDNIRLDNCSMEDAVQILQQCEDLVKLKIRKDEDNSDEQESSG

T9: DFNB31_2, Q9P202
T9 sequence (Q9P202 274-371, limits assumed, looked up): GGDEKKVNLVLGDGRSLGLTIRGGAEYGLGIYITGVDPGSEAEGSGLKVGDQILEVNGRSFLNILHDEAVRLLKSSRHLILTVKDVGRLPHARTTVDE

T10: PCLO, Q9Y6V0
T10 sequence (Q9Y6V0 4491-4600, limits assumed, looked up): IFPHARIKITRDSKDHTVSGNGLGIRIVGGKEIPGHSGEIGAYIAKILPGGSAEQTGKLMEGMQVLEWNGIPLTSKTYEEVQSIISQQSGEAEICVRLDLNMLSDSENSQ


How the values were obtained:
Test in all cases: holdup assay
Set-up in all cases: key: below the threshold = too weak to quantify, mostly under pKd 3.1 to 4
Conditions in all cases: plain residues with an end cap or a label only (N-terminal biotin on a linker: ado-ado)
MAGI1_2, Q96QZ7 = target: MAGI1_2, Q96QZ7
Sequence of MAGI1_2, Q96QZ7 (Q96QZ7 456-580): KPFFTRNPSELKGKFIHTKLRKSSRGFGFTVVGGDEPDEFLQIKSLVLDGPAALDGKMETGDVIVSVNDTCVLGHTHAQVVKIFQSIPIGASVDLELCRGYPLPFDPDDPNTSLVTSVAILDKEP

GRIP1_3, Q9Y3R0 = target: T1, GRIP1_3, Q9Y3R0
AHNAK1, Q09666 = target: AHNAK1, Q09666
Sequence of AHNAK1, Q09666 (Q09666 4-100): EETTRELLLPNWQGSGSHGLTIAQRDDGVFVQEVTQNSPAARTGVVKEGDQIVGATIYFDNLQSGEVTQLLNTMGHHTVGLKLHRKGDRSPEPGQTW

GIPC2, Q8TF65 = target: GIPC2, Q8TF65
Sequence of GIPC2, Q8TF65 (Q8TF65 112-203): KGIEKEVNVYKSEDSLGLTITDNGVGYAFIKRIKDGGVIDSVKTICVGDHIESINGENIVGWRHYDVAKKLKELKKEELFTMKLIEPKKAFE

MAGI2_5, Q86UL8 = target: MAGI2_5, Q86UL8
Sequence of MAGI2_5, Q86UL8 (Q86UL8 915-1017): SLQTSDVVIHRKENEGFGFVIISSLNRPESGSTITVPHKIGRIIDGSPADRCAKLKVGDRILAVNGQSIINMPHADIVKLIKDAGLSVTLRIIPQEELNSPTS

PDZD2_2, O15018 = target: T2, PDZD2_2, O15018
Inadl_3, Q8NI35 = target: Inadl_3, Q8NI35
Sequence of Inadl_3, Q8NI35 (Q8NI35 359-469): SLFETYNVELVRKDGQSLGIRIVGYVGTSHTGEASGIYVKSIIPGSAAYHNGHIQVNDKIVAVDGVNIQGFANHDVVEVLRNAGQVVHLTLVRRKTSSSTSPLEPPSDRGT

Inadl_10, Q8NI35 = target: Inadl_10, Q8NI35
Sequence of Inadl_10, Q8NI35 (Q8NI35 1673-1763): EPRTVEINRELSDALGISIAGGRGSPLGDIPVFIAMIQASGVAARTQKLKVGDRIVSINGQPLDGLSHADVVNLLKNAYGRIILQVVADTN

MPP6, Q9NZW5 = target: T3, MPP6, Q9NZW5
Inadl_2, Q8NI35 = target: Inadl_2, Q8NI35
Sequence of Inadl_2, Q8NI35 (Q8NI35 238-335): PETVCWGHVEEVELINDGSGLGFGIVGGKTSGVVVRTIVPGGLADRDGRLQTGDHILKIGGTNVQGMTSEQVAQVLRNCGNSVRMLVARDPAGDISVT

Inadl_6, Q8NI35 = target: Inadl_6, Q8NI35
Sequence of Inadl_6, Q8NI35 (Q8NI35 1058-1167): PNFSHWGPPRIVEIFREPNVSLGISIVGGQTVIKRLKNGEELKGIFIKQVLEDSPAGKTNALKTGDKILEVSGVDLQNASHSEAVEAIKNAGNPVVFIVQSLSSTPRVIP

Inadl_8, Q8NI35 = target: Inadl_8, Q8NI35
Sequence of Inadl_8, Q8NI35 (Q8NI35 1425-1530): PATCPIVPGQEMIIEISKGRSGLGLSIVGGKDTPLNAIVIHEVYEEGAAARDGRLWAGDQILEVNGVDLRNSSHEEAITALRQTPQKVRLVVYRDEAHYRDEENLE

GRIP1_2, Q9Y3R0 = target: T4, GRIP1_2, Q9Y3R0
TJP2_1, Q9UDY2 = target: TJP2_1, Q9UDY2
Sequence of TJP2_1, Q9UDY2 (Q9UDY2 24-128): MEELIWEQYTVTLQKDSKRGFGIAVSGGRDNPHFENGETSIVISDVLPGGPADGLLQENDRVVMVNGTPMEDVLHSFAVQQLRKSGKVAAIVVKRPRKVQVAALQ

MAST2, Q6P0Q8 = target: MAST2, Q6P0Q8
Sequence of MAST2, Q6P0Q8 (Q6P0Q8 1099-1202): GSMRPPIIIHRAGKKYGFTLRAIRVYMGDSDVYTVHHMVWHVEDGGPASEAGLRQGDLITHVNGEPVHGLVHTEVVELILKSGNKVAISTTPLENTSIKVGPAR

GORASP1, Q9BQQ3 = target: GORASP1, Q9BQQ3
Sequence of GORASP1, Q9BQQ3 (Q9BQQ3 1-208): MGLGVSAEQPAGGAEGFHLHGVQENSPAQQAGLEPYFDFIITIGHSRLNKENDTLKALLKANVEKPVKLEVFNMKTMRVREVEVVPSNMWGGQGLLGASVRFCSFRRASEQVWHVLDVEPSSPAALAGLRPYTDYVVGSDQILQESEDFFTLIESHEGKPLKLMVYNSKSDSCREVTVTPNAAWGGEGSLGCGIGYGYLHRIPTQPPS

GRID2IP_2, A4D2P6 = target: GRID2IP_2, A4D2P6
Sequence of GRID2IP_2, A4D2P6 (A4D2P6 272-370): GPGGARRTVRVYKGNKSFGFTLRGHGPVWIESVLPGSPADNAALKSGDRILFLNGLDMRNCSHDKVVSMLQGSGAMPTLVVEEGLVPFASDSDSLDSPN

RAPGEF6, Q8TEU7 = target: T5, RAPGEF6, Q8TEU7
ARHGEF11, O15085 = target: T6, ARHGEF11, O15085
LIMK2, P53671 = target: LIMK2, P53671
Sequence of LIMK2, P53671 (P53671 143-248): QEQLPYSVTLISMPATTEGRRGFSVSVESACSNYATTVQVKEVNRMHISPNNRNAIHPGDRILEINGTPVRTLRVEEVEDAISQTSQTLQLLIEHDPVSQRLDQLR

GRIP1_7, Q9Y3R0 = target: T7, GRIP1_7, Q9Y3R0
GRIP1_5, Q9Y3R0 = target: T8, GRIP1_5, Q9Y3R0
DFNB31_2, Q9P202 = target: T9, DFNB31_2, Q9P202
GRIP2_6, Q9C0E4 = target: GRIP2_6, Q9C0E4
Sequence of GRIP2_6, Q9C0E4 (Q9C0E4 648-740): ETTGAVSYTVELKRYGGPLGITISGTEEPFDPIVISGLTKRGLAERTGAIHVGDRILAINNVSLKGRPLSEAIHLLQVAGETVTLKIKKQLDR

PDZRN4_1, Q6ZMN7 = target: PDZRN4_1, Q6ZMN7
Sequence of PDZRN4_1, Q6ZMN7 (Q6ZMN7 213-318): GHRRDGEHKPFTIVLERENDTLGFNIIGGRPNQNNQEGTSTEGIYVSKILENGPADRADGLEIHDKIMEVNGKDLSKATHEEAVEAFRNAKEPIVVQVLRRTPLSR

SNX27, Q96L92 = target: SNX27, Q96L92
PCLO, Q9Y6V0 = target: T10, PCLO, Q9Y6V0
GRIP2_7, Q9C0E4 = target: GRIP2_7, Q9C0E4
Sequence of GRIP2_7, Q9C0E4 (Q9C0E4 934-1023): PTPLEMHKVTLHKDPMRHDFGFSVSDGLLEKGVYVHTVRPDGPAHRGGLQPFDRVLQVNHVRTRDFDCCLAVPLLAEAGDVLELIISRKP

| Binder | pKd (MAGI1_2, Q96QZ7) | pKd (GRIP1_3, Q9Y3R0) | pKd (AHNAK1, Q09666) | pKd (GIPC2, Q8TF65) | pKd (MAGI2_5, Q86UL8) | pKd (PDZD2_2, O15018) | pKd (Inadl_3, Q8NI35) | pKd (Inadl_10, Q8NI35) | pKd (MPP6, Q9NZW5) | pKd (Inadl_2, Q8NI35) | pKd (Inadl_6, Q8NI35) | pKd (Inadl_8, Q8NI35) | pKd (GRIP1_2, Q9Y3R0) | pKd (TJP2_1, Q9UDY2) | pKd (MAST2, Q6P0Q8) | pKd (GORASP1, Q9BQQ3) | pKd (GRID2IP_2, A4D2P6) | pKd (RAPGEF6, Q8TEU7) | pKd (ARHGEF11, O15085) | pKd (LIMK2, P53671) | also measured |
| --- | --- | --- | --- | --- | --- | --- | --- | --- | --- | --- | --- | --- | --- | --- | --- | --- | --- | --- | --- | --- | --- |
| QSPPNIYYKV [EFNB3, Q15768] | below the threshold | below the threshold | below the threshold | below the threshold | below the threshold | 3.67 | 3.5 | below the threshold | below the threshold | below the threshold | below the threshold | below the threshold | 3.52 | below the threshold | 4.54 | 4.75 | below the threshold | below the threshold | 4.15 | below the threshold | pKd (GRIP1_7, Q9Y3R0): 3.67; pKd (GRIP1_5, Q9Y3R0): below the threshold; pKd (DFNB31_2, Q9P202): below the threshold; pKd (GRIP2_6, Q9C0E4): 4.4; pKd (PDZRN4_1, Q6ZMN7): below the threshold; pKd (SNX27, Q96L92): 3.89; pKd (PCLO, Q9Y6V0): below the threshold; pKd (GRIP2_7, Q9C0E4): 4.41 |
| ETSLVKGIDI [DENND5A, Q6IQ26] | below the threshold | below the threshold | below the threshold | 3.54 | below the threshold | 4 | 3.53 | below the threshold | below the threshold | below the threshold | below the threshold | below the threshold | below the threshold | below the threshold | below the threshold | below the threshold | below the threshold | below the threshold | 3.79 | below the threshold | pKd (GRIP1_7, Q9Y3R0): below the threshold; pKd (GRIP1_5, Q9Y3R0): below the threshold; pKd (DFNB31_2, Q9P202): below the threshold; pKd (GRIP2_6, Q9C0E4): 3.55; pKd (PDZRN4_1, Q6ZMN7): below the threshold; pKd (SNX27, Q96L92): below the threshold; pKd (PCLO, Q9Y6V0): below the threshold; pKd (GRIP2_7, Q9C0E4): 3.58 |
| NASRTRITFV [MCM7, P33993] | 4.71 | below the threshold | below the threshold | below the threshold | 3.75 | 4.7 | below the threshold | below the threshold | below the threshold | 4.61 | 4.46 | 5.05 | below the threshold | 5.34 | 4.99 | 4.86 | 4.97 | below the threshold | 4.35 | below the threshold | pKd (GRIP1_7, Q9Y3R0): below the threshold; pKd (GRIP1_5, Q9Y3R0): below the threshold; pKd (DFNB31_2, Q9P202): below the threshold; pKd (GRIP2_6, Q9C0E4): 3.58; pKd (PDZRN4_1, Q6ZMN7): below the threshold; pKd (SNX27, Q96L92): 4.85; pKd (PCLO, Q9Y6V0): below the threshold; pKd (GRIP2_7, Q9C0E4): 4.27 |

Now from value to binder, other results behind:

| pKd (MAGI1_2, Q96QZ7) | pKd (GRIP1_3, Q9Y3R0) | pKd (AHNAK1, Q09666) | pKd (GIPC2, Q8TF65) | pKd (MAGI2_5, Q86UL8) | pKd (PDZD2_2, O15018) | pKd (Inadl_3, Q8NI35) | pKd (Inadl_10, Q8NI35) | pKd (MPP6, Q9NZW5) | pKd (Inadl_2, Q8NI35) | pKd (Inadl_6, Q8NI35) | pKd (Inadl_8, Q8NI35) | pKd (GRIP1_2, Q9Y3R0) | pKd (TJP2_1, Q9UDY2) | pKd (MAST2, Q6P0Q8) | pKd (GORASP1, Q9BQQ3) | pKd (GRID2IP_2, A4D2P6) | pKd (RAPGEF6, Q8TEU7) | pKd (ARHGEF11, O15085) | pKd (LIMK2, P53671) | Binder | also measured |
| --- | --- | --- | --- | --- | --- | --- | --- | --- | --- | --- | --- | --- | --- | --- | --- | --- | --- | --- | --- | --- | --- |
| below the threshold | below the threshold | below the threshold | below the threshold | below the threshold | 3.91 | below the threshold | below the threshold | 3.57 | below the threshold | below the threshold | below the threshold | below the threshold | below the threshold | 5.27 | below the threshold | 3.98 | 3.49 | below the threshold | below the threshold | PAPGQHTTQI [STK16, O75716] | pKd (GRIP1_7, Q9Y3R0): below the threshold; pKd (GRIP1_5, Q9Y3R0): below the threshold; pKd (DFNB31_2, Q9P202): below the threshold; pKd (GRIP2_6, Q9C0E4): below the threshold; pKd (PDZRN4_1, Q6ZMN7): below the threshold; pKd (SNX27, Q96L92): 4.27; pKd (PCLO, Q9Y6V0): below the threshold; pKd (GRIP2_7, Q9C0E4): below the threshold |
| below the threshold | below the threshold | below the threshold | below the threshold | below the threshold | below the threshold | below the threshold | below the threshold | below the threshold | below the threshold | below the threshold | below the threshold | below the threshold | below the threshold | 5.34 | below the threshold | 4.48 | below the threshold | 3.8 | below the threshold | ANGLMQTSKL [SSTR5, P35346] | pKd (GRIP1_7, Q9Y3R0): below the threshold; pKd (GRIP1_5, Q9Y3R0): below the threshold; pKd (DFNB31_2, Q9P202): below the threshold; pKd (GRIP2_6, Q9C0E4): below the threshold; pKd (PDZRN4_1, Q6ZMN7): below the threshold; pKd (SNX27, Q96L92): 5.52; pKd (PCLO, Q9Y6V0): below the threshold; pKd (GRIP2_7, Q9C0E4): below the threshold |
